Reference: the supplement of paper PMC9170038

System: MS2 coat protein
Assay: apparent KD of MS2 coat protein; designed switch direction (-1 OFF switch, 1 ON switch): -1; higher = weaker reporter binding
How it was run: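 The apparent KD reported per design is the median over clusters of curve fits to normalised cluster fluorescence. The RNA switches were transcribed on Illumina chips by stalled E. coli RNA polymerase. SNAP-549-labelled MS2 coat protein was titrated from 0.7 or 1.5 nM, doubling up to 3 µM, in Tris-HCl pH 7.5 buffer containing KCl, MgCl2, BSA, DTT, tRNA and Tween-20, with no input, 200 uM small-molecule ligand, or an oligonucleotide input.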

[1] = Eterna round: R95, input ligand: microRNA oligo, concentration not stated
[2] = input ligand: microRNA oligo, concentration not stated
[3] = Eterna round: R95, input ligand: FMN 200 uM
[4] = Eterna round: R95, input ligand: none

Row | Sequence | apparent KD of MS2 coat protein (input ligand: FMN 200 uM) [nM] | apparent KD of MS2 coat protein (input ligand: none) [nM] | apparent KD of MS2 coat protein [1] [nM] | apparent KD of MS2 coat protein [2] [nM] | apparent KD of MS2 coat protein [3] [nM] | apparent KD of MS2 coat protein [4] [nM]
1 | UAAUUGUGAGGAUAUUCGUUUAACACGGAGACGUGUUGAACGGAGAAGGCACAUGAGGAUCACCCAUGUUCCUU [Mat - Exclusion 4 - JL Mod - D17] (Eterna round: R97, puzzle: Exclusion 4) | 89.9 | 19.3 |  |  |  | 
2 | CUUUUGUGAGGAUAUCAGUAGUAAAAAAAUUAAAUUACUACUGAGAAGGCACAUGAGGAUCACCCAUGUUCCUC [salish99_ex4_r3_022] (puzzle: Exclusion 4) |  |  | 36.4 |  |  | 
3 | AACCUGAGGCAAAGCUUUAGGUGUACAUGAGGAUCACCCAUGUAGGAUAUGGUAGGCAAAGCUUACCAGAAGGACAUUGGCGUA [Mat - Exclusion NG 3 - Mod of JL - D41] (Eterna round: R96, puzzle: Exclusion NG 3) | 418 | 119 |  | 93.8 |  | 
4 | CUGAACCCGGUAGGAUAUAUUGUGGGCAAGCGUGGAACGACAUGAGGAUCACCCAUGUAAUUUAGGUAGAAGGGCCGAGAGAUU [Excl-NG2-LRO12] (Eterna round: R96, puzzle: Exclusion NG 2) | 32.5 | 41.5 |  | 41.5 |  | 
5 | UUAUUAAUUAAGACUGCAAGAUCACAUGAGGAUCACCCAUGUCAGGAUAUCAGCUCGAUUAGAGCUGAGAAGGGACAAGCAGUC [ExNG3/15-A1] (Eterna round: R96, puzzle: Exclusion NG 3) | 334 | 99.6 |  | 112 |  | 
6 | AAAUACCGGUGAGGAUAUUUAUAAUAGAACUUUAUGAUAUACAUGAGGAUCACCCAUGUUACUUUAAAGAAGGCAUCGGAUAAA [Mat - Exclusion NG 2 - Mod of JL - D89] (Eterna round: R96, puzzle: Exclusion NG 2) |  |  |  | 13.9 |  | 
7 | CCCGAGGAAGGAUAUACAUGAGGAUCACCCAUGUGCGUUGGGACUGGCGUGGUCUUCAGUAGAAGGUCCGCGCC [Esdiza] (Eterna round: R97, puzzle: Exclusion 3) | 48.7 | 33.8 |  |  |  | 
8 | GGAACGACAGGAUAUACAUGAGGAUCACCCAUGUAAAGAAGAGUAAAAUGUGAAAGCGGUAGAAGGGUCAAGAA [AK-MS2ROC-r4-exclusion3-6] (Eterna round: R97, puzzle: Exclusion 3) | 42.3 | 43.9 |  |  |  | 
9 | AUAAUGUAAGGAUAUAUGAAUCACGGUGAUACACCGUGAAGAUAGAAGGUACAUGAGGAUCACCCAUGUAAGGC [Mod of Anonveat 12 - Jieux - Exclusion 4] (Eterna round: R97, puzzle: Exclusion 4) | 12.1 | 21 |  |  |  | 
10 | AGAUCGUCAGGAUAUACAUGAGGAUCACCCAUGUGUAGUCCAAAUUUGACUACAACAUGUAGAAGGGACGAUCG [Exclusion 3 (MOD2 of #1 Marzena11)] (Eterna round: R97, puzzle: Exclusion 3) | 209 | 44 |  |  |  | 
11 | CGUGACUGAGGAUAUCUAUGAUAUCACAUGAGGAUCACCCAUGUCCAGCGAAAGCUGGAGGGAGAAGGCAGUCACG [Fiskers Ex 5 - 30] (puzzle: Exclusion 5) |  |  | 220 |  | 61.5 | 185
12 | GAACUGAGGCAAAGCUUUAGUCGUACAUGAGGAUCACCCAUGUAGGAUAUGGUAGGCUUUGCUUACCAGAAGGACAGAGUGAUC [Mat - Exclusion NG 3 - Mod of JL - D59] (Eterna round: R96, puzzle: Exclusion NG 3) |  |  |  | 76.3 |  | 
13 | AGUAGUUACGCAGGAUAUGAGGAUCACCCAUAGAAGGAUAUCGAAAGAGAAGGUCUGAGGAUUACCCAGAAGGGCGUGACUACA [pwkr exNG2 2xF5 2xFMN.5] (Eterna round: R96, puzzle: Exclusion NG 2) | 647 | 136 |  | 113 |  | 
14 | GCUGGUCGAGGAUAUGCAUUCGUGCUUCGGCACGUAAGGUCACAUGAGGAUCACCCAUGUAGAAGGUGACCAGC [E2/6-B1] (Eterna round: R97, puzzle: Exclusion 2) | 23.9 | 17.8 |  |  |  | 
15 | GAUCCUCAGACGGACGUCACGAAACAUGAGGAUCACCCAUGUGAGGAUAUCUCCAAAAGGUCGGCAGAGAAGGCACCAUAACAA [Eternabot solution 19] (Eterna round: R96, puzzle: Exclusion NG 3) | 261 | 139 |  | 131 |  | 
16 | CAUGAUUGGCGAGGAUAUUGACCUAGUUAGCGACGAGAAGGCGCCUGUCACAUGAGGAUCACCCAUGUGAAUCUGGUGAAAGAG [Ex NG1 #92] (Eterna round: R96, puzzle: Exclusion NG 1) | 21.6 | 18.3 |  | 13.3 |  | 
17 | UAAUAAAGGGUAGGAUAUGCCGAACAAACACGAGCAGAAGGACCAAAACACUACUUGAGGAUCACCCAAGUGUCCUUCCGUGGU [Mutated MS2 EX1.6] (Eterna round: R96, puzzle: Exclusion NG 1) | 52.4 | 17.2 |  | 13.2 |  | 

Row | Sequence | apparent KD of MS2 coat protein (input ligand: FMN 200 uM) [nM] | apparent KD of MS2 coat protein (input ligand: none) [nM] | apparent KD of MS2 coat protein [1] [nM] | apparent KD of MS2 coat protein [2] [nM] | apparent KD of MS2 coat protein [3] [nM] | apparent KD of MS2 coat protein [4] [nM]
18 | GGAUCGUAUGUCAGGAUAUACCACUGGAUACAGUGGUAGAAGGGACAUGAGGAUCACCCAUGUCUUAUCGAUCC [Fiskers BMX 4 - 52] (puzzle: Brourd's mod of Exclusion 4) |  |  | 14.3 |  |  | 
19 | CGUGACUCAGGAUAUGUAUAAUAUCACAUGAGGAUCACCCAUGUCCAGCGAAAGCUGGAAGCAGAAGGGAGUCACG [Fiskers Ex 5 - 39] (puzzle: Exclusion 5) |  |  | 41.6 |  | 85.1 | 111
20 | AAGAAACAUGAGGAUCACCCAUGUGAGGAUAUGAAAAAGAAAAGAAAAGAAAGAAGAAUCAGAAGGCACAAAGG [salish99-ex1_r3_019] (puzzle: Exclusion 1) |  |  | 30.7 |  | 40.5 | 34
21 | AUCUUGUAAGGAUAUCUGACAAGUGACGAAAGUCACAGUUCAGAGAAGGUACAUGAGGAUCACCCAUGUAGAAC [Ex4-3: 41] (puzzle: Exclusion 4) |  |  | 15.9 |  |  | 
22 | AUAGUAUAGCAAGGAUAUCGAUUUAGUUUGUUACGAGAAGGUGCUUUAGUUUAUACCUCUUGUUUACAUGAGGAUCACCCAUGU [JR_ExcNG1_Sub048] (Eterna round: R96, puzzle: Exclusion NG 1) |  |  |  | 19.4 |  | 
23 | UUUGUGUCAGGAUAUGAGUCGUAGAACAAUAGUACUACGUCUCAGAAGGGACAUGAGGAUCACCCAUGUGCCUC [Fiskers Ex 4 Super Stable 44 mod 27] (puzzle: Exclusion 4) |  |  | 34.9 |  |  | 
24 | AGUACUAUCACGAAAGUGAUAGUACAAAUAGCAAGUGAAACAUGAGGAUCACCCAUGUCCUCAUUUGCUCGUCUUAU [Mat - Sensor v2 -ver2- JL mod - D65] (Eterna round: R96, puzzle: Sensor v2, turn-off variant 2) | 12.1 | 14.3 |  | 409 |  | 
25 | UUAGGCUGAAGAUCAAUUAAUUAACAUGAGGAUCACCCAUGUAAGGAUAUCAGCUCGUUUAGAGCUGAGAAGGUACAUGCAGCC [ExNG3/18-A2] (Eterna round: R96, puzzle: Exclusion NG 3) | 351 | 118 |  | 121 |  | 
26 | AUUCGGAUAGGAUAUACUUGAGGAUCACCCAAGUGUUUGAACUAUCGUGAUCUGAAGAGUAGAAGGAUCAUCAU [Atquedzaed] (Eterna round: R97, puzzle: Exclusion 3) | 176 | 90.7 |  |  |  | 
27 | CGGUACUGAGGAUAUACAUGAGGAUCACCCAUGUGUACUAGCUAGCGUACUGGCAUUAGUAGAAGGCGGUGCUG [JL-ex3-3.20 Brourd mod] (puzzle: Exclusion 3) |  |  | 11.5 |  | 19.8 | 13.2
28 | AGGAAGCAAGGAUAUACGAGGAGAAGGUGGAGAUUUAAAGGACAUGAGGAUCACCCAUGUAGAAGGUGCGAGAA [JR_Exclu2_Sub046] (puzzle: Exclusion 2) |  |  | 44.3 |  | 79.6 | 50.4
29 | AAGAAACAUGAGGAUCACCCAUGUGAGGAUAUGACCAAGAAAAGAAAAGAAAGAAGAGUCAGAAGGCACAAAGG [salish99-ex1_r3_066] (puzzle: Exclusion 1) |  |  | 56.6 |  | 99.7 | 181
30 | ACCUAACAUGAGGAUCACCCAUGUCAGGAUAUCCAAGCGAAAGCAAAAGCGAAAGCAAGGAGAAGGGACAGAGG [ChP 04-04-2015 #8] (puzzle: Exclusion 1) |  |  | 32.4 |  | 62.2 | 28.4
31 | GGUACUAACAGCUGACUGUUAGUACUGUAGGUUUGUGUUACAUGAGGAUCACCCAUGUCCUCAUAAGCUCGUCUUGU [JL-sv3-2.23 mat747 mod] (puzzle: Sensor v3, turn-off variant 2) |  |  | 252 |  | 382 | 445
32 | UAUUCACAUGAGGAUCACCCAUGUCAGGAUAUAGUCGAUAUAUGGAAACAUAUAUCGACUAGAAGGGACUAGCG [Jieuxxlusion 12 - Jieux - Exclusion 1] (Eterna round: R97, puzzle: Exclusion 1) | 64.5 | 47.4 |  |  |  | 
33 | CCCUGACAUGAGGAUCACCCAUGUUAGGAUAUAACAUUUGACGCGACAGUGUGGAGUGUUAGAAGGGAUAUGGG [-28.4, -26.7 kcal, A 28%] (Eterna round: R97, puzzle: Exclusion 1) | 29.9 | 20.8 |  |  |  | 
